Biological target: HuD (UniProt P26378 1-385)
Assay: EMSA; 2 uM HuD, 125 nM probe; complex specificity confirmed with unlabeled competitor oligoriboprobe; 10 mM HEPES pH 7.3, 20 mM KCl, 1 mM MgCl2, 1 mM DTT, 5% glycerol, 2 ug/ml tRNA, 30 min, room temperature; 6% native PAGE, 0.5X TBE
Settings: protein: commercial; label: 3'-biotin

Sequence of HuD (P26378 whole entry): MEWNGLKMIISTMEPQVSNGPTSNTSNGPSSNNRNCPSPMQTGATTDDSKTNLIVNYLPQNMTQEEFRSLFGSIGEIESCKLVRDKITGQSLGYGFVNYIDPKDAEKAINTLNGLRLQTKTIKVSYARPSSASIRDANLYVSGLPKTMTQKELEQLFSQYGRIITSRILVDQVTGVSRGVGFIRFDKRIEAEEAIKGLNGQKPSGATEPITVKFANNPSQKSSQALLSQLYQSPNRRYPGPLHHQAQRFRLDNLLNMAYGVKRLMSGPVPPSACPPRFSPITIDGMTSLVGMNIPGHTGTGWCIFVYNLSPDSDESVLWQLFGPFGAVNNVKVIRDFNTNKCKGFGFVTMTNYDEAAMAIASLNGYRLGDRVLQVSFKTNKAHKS

B1: NEP mRNA 3'-UTR ARE oligoribonucleotide (ssRNA)
RNA: UUCUGUGAUCAUUUAUUUUAAGCACUC
binding result: binds
